Reference: the DeepSol protein solubility set

assay: soluble on expression in E. coli; label from the status in PepcDB or PDB records

Row | Sequence | soluble on expression in E. coli
1 | MSLSEKMRRIVEAAGGIVWRWKAGSDIANDPAIASSKSAQEQLDSIEVCIVHRPKYDDWSWPKGKLEQNETHRHAAVREIGEETGSPVKLGPYLCEVEYPLSEEGKKTRHSHDCTADTKHTLYWMAQPISADDAEHLLDAFGPVHRADVGEINDIVWVSVREARKILSHSTDKDTLAVFVDRVQEGAATAQNLLIVRHAKAESRKSWKGTDANRPITPKGAAMAFALNRELACFNPTRLATSPWLRCQETLQVLSWQTERPMEHINTLTEDAFAEHPAVSWLAFREQITQTLNSRETTAICMHRPVIGGMYDHLRGLCARKQLAKQLIAKSPYMPTGTAMSLFIIDTPQGPSIIDIQKVSPIVYEGHHHHHH | soluble
2 | MQHIYVPYHVRDHPMSSVCERFERELRRGAIQLEVICLLENERYGYEIVKKLKESGFRVEEGTLYPLLRRLEGEGILSSRWSTDDTRPRKYYTVTDYGKRVRKKWLELFRSINRSLEDLTEVDQ | not soluble
3 | MGHHHHHHSHMGEGQIPPAHDSSIFISCDVLLKKISINTRTWLPCSISCSASLLENSPFYFTLFVCDYISHSFHLLINIFSEIMSYHGNGGYNAPYGGHGGYAPPPVHGAPGYMPPTVVHTDGGHHGHVDTHHHEESHHGEHHGGHHGVQHYESHHESHHHGGHHGHH | not soluble
4 | MSLKVRNLNISLKNNLLLKDINLDIKTGKTLMILGQSGVGKSLLGKALVRLLDSNFTISFDELSFHNSCIFNFNKEELRNFRSKVALVLQDAELSLYPYLDIGNLCHLVLKTHTKLKQKERKDYAFSYFQKLGFENLDRLWHSYANELSLGMARRVSLALALLNQPQILICDEITASLDKENASKIISILEELKNTAALVCITHDLNLVNSLADEILMLEKNSSNLYSLDEFLRYYNAEGHHHHHH | soluble
5 | MSLNPVNGAILSIEISHPNGFEIDENISAYHDAEYYMDRIFDSGNYDSLIVLTSIKILSQHWEIDNDMVVTSQSIRQLAIDTINSKAESGTIKNYWFKLQSLCEEFKNLSQETLSLSVFDNQVLTLNVNGHGIFRKSAFFESFANQKLNSADGKLMLIFNKFETFISRKSYHKLHEELLQLRKISANEITNLFTKHIEGKISTNEIQTILKDLEQIPGIVEIVKSLIGSSGFELIVDANSISSKELGAFHKISTVMIFKNIMETHKTLLLDLVVLFLTCETNDQIVEFVNQIRATLVQYDVMEVVFTTCLNKGEVETKNMGQVQNSIFWSSVVATHSQLKRLIESLQLNDGYEYFYNNVLPDDYLVDVVIELINNKEYFFLQKKFLTKLNQEGHHHHHH | not soluble
6 | MGSSHHHHHSSGENLYFQGHMKHGIYYSYWEHEWSAKFGPYIEKVAKLGFDIIEVAAHHINEYSDAELATIRKSAKDNGIILTAGIGPSKTKNLSSEDAAVRAAGKAFFERTLSNVAKLDIHTIGGALHSYWPIDYSQPVDKAGDYARGVEGINGIADFANDLGINLCIEVLNRFENHVLNTAAEGVAFVKDVGKNNVKVMLDTFHMNIEEDSFGDAIRTAGPLLGHFHTGESNRRVPGKGRMPWHEIGLALRDINYTGAVIMEPFVKTGGTIGSDIKVWRDLSGGADIAKMDEDARNALAFSRFVLGG | soluble
7 | MGPVRFAPSILTADLARLGEAIREAEAAGVDWIHLDVMDGVFVPNLTFGPLLVEAVRRVTSLPLDVHLMIVKPERYLEDFAQAGADHITVHFEATYHPHRAVQKVKELGKKAGLAVNPGTPLEAFEPLLPDLDLALLMSVNPGFGGQRYLPTATERLRRLKAMRDRLNPACLIVVDGGINRDTVAEARRAGADVAVAGSALFNDKPVAENLKALRLALLG | soluble
8 | MEQQPQLNDHNKQEYPPMHTAEHLLNATMVKTFGCPRSRNAHIERKKSKCDYILPTCPTDAEIQAIEDKVNEVISQNLPVTVEFMTHEQAKGIVDLSKLPADASETLRIIRIGDYDACACIGLHVSNTSEVGTFKIISHDYNEERQTLRLRFKLIEKK | not soluble
9 | GPGSMSTSEGNAANRFAGRVKQAEDPFVKALRIKVNGLKRNMKDLEFAKKEVVCETARLESIRDTNPDRVKQQENVIAEAQMMIPHSENRVRAAIKDLQDFLDTHENDAEEGELMQDARTTLESAQLTLSKQ | soluble
10 | MRMTLAVHTRQYSIHSFNPSAPIPSKVFAEEVYFICKTEEGLTLVVSSELALDSLEQETNWSCLEVLGPLGFSLTGILSKIASTLADVQISIFALSSFDTDYILVKKDCLQNAMTALKKAGYKIIESKLEHHHHHH | not soluble
11 | MIPTTATVDDEPGQIKRALIDASAGAISGGVSRSVTSPLDVIKIRFQVQLEPTTSWGLVRGNLSGASKYTGMVQATKDIFREEGFRGFWRGNVPALLMVMPYTSIQFTVLHKLKSFASGSTKTEDHIHLSPYLSFVSGALAGCAATLGSYPFDLLRTILASQGEPKVYPTMRSAFVDIIQSRGIRGLYNGLTPTLVEIVPYAGLQFGTYDMFKRWMMDWNRYKLSSKIPINVDTNLSSFQLFICGLGAGTSAKLVCHPLDVVKKRFQIEGLQRHPRYGARVERRAYRNMLDGLRQIMISEGWHGLYKGIVPSTVKAAPAGAVTFVAYEFTSDWLESISW | soluble
12 | MEQLKKQVCDYIESHEEESVKFLKRLIQEKSVSGDESGAQAIVIEKLRELGLELDIWEPSFSKMKDHPYFVSPRTSFSDSPNIVATLKGSGDGKSMILNGHIDVVPEGDVNQWEHHPYSGEKIGNRIYGRGTTDMKGGNVALMLAMEAIIESNIELKGDIYFQSVIEEESGGAGTLATILRGYKADGVIIPEPTNMKFFPKQQGSMWFRLRVKGKAAHGGTRYEGVSAIEKSMFVIEHVRKLEEKRNSRITDPLFKEIPIPIPINIGKIEGGSWPSSVPDELILEGRCGVAPNETIEAAKEEFENWIAELNDVDNWFVENPVEVEWFGARWVPGELEENHELITTLHHNFVEIEGNEPIIEASPWGTDGGLFTQIANVPTIVFGPGETKVAHYPNEYIEVDKMIAAAKIIACTLLDWCEVKK | not soluble
13 | NTDIRNIPVGVVDQSGSTAGRIITQSVKVTQVVDIKETYATAQEAEQAIQDGIVRAVLILPSDLTQRMMQGRELGQWIVDGSDTMISSAILSLQTMPLTDFDFEIRPAPSKTFEVALYYNPSRRSAVN | not soluble
14 | MENTENSVDSKSIKNLEPKIIHGSESMDSGISLDNSYKMDYPEMGLCIIINNKNFHKSTGMTSRSGTDVDAANLRETFRNLKYEVRNKNDLTREEIVELMRDVSKEDHSKRSSFVCVLLSHGEEGIIFGTNGPVDLKKITNFFRGDRCRSLTGKPKLFIIQACRGTELDCGIETDSGVDDDMACHKIPVDADFLYAYSTAPGYYSWRNSKDGSWFIQSLCAMLKQYADKLEFMHILTRVNRKVATEFESFSFDATFHAKKQIPCIVSMLTKELYFYH | soluble
15 | MSLNFPHLSKQSLGLYPVVDDVSWIERLLPLGINTIQLRIKDPYQPDLEQQIARAIELGRQYDAQVFINDYWQLAIKHGAFGVHLGQEDIEDSNLSQLSTAGICLGLSTHGYYELLRIVQINPSYIALGHIFSTTTKQMPSKPQGLVRLALYQKLNDSIPYGESVGYPTVAIGGIDQSNAEQVWQCGVSSLAVVRAITLSESPKQVIEFFDQLMNTTSTSLVMEDYRAYEGHHHHHH | not soluble
16 | QQRFLNIATDGRLSPKQKSNFLALEAEACIPYMPISEALREAMSDGVICDMFEGHAPFKPRYVLPDYAKFLSQGSEYLELSPAEDFDDALN | not soluble
17 | MANKKNKVKFNICNVHYAPITVADEGKVSFGTPVAMPGAVSISMDPTGEPESFYADGIEYYVINNNQGYDGDLELAMIPETFRTDILKEEADSNNVLVENANSETGSFALLFEFDGDIRKIRHVLYNCSASRPTIESKTNEEDKEVQTETLTIKARPMADGYVKAKTGDSTTDTVYNNWYKSVYLPNSLEHHHHHH | soluble
18 | MIRVIFLDLDKTLLPEYDPEPAIPIVEELKKKGFEIVFNSSKTRAEQEYYREKLNVKGPFIVENGSAIYIPSNYFPFEVPGVKRGEYMVLELGVKVEEIRKALKELEAEYGLKYYGNSTDEEIEKFTKLPKHLIPLAKDREYSETIFLWKREGWEKDLIRKGFKVTMGSRFYAVHGNSDKGKAAKLLLDLYKRVDEVESYAVGDGENDFPMFDVVDFAFLIGDLRHENAENVTSIKDVLKKIAAALEHHHHHH | soluble
